Columns and labels:
[1] = target: T1, GB1-SRSF1 RRM2 WT (pseudo-RRM) (human, UniProt Q07955 107-203); assay: ITC
GB1-SRSF1 RRM2 R142A = GB1-SRSF1 RRM2 R142A (human, UniProt Q07955 107-203, R142A); assay: ITC
[2] = target: T1, GB1-SRSF1 RRM2 WT (pseudo-RRM); assay: NMR

T1 sequence (Q07955 107-203): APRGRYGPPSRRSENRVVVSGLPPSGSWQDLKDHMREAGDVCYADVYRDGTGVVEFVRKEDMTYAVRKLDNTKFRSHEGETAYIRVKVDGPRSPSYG
Chain of GB1-SRSF1 RRM2 R142A (Q07955 107-203 R142A): as the sequence (Q07955 107-203) above, with R36A counted along it

Row | Binder | Kd [1] | Kd (GB1-SRSF1 RRM2 R142A) | binding result [2]
1 | AGGAC (ssRNA) [5'-AGGAC-3' RNA] | 1 µM | 7 µM | 
2 | UGAAGGAC (ssRNA) [5'-UGAAGGAC-3' RNA] |  |  | binds

From paper PMC5291263
